B1: NCK2 (parent)
chain: YTGPSSSGRFAGREWYYGNVTRHQ

Variants of: B1
Test: protein stability index of a GFP-peptide fusion (GPS, HEK-293T) (PSI 1-6); higher = more stable
Settings: c terminus: a fixed tail appended
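Also: lentivirally expressed fusions sorted by FACS into six bins by GFP to DsRed ratio, PSI derived from sequencing read proportions per bin multiplied by bin number.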

Protein stability index of substitutions, site by site:
A11: F 4.19; N 2.34; T 2.3; S 2.2; L 2.02; V 1.62; E 2.04; W 3.03; G 2.44; M 1.48; I 1.55; R 1.85; P 1.25; H 2; Y 2.2; D 1.95; Q 2.21; K 1.32
G8: T 1.87; I 1.59; V 1.48; A 1.25; R 2.3; F 2.04; M 1.68; C 2.32; K 1.82; Y 2.22; D 2.65; N 1.71; H 1.51; P 1.66; Q 1.64; E 2.32; S 2.22; L 3.02
P4: M 2.37; E 2.31; C 3.83; Q 1.26; R 3.61; N 2.32; K 2.4; S 1.79; G 1.99; F 1.82; L 1.64; Y 3.08; T 1.9; I 1.03; W 1.71; V 1.36; A 2.13; H 2.48; D 1.56
N19: M 3.08; T 2.44; Y 1.91; S 1.44; H 2.12; R 2.53; D 1.76; P 2.58; W 3.18; G 1.63; I 1.53; K 1.38; A 2.09; Q 3.23; L 2.05; C 1.55; E 1.53; F 2.01; V 1.61
S6: Q 2.22; F 3.15; C 1.69; I 1.96; P 1.66; G 1.54; L 1.77; H 2.15; D 1.91; E 1.49; T 1.93; A 2.09; V 1.58; R 1.46; M 2.35; K 2.35; Y 2.13; N 1.78
G12: W 1.9; Q 2.09; E 1.49; A 1.73; I 2.66; T 2.17; N 3.14; M 1.75; P 1.42; H 2.26; S 1.52; L 2.25; C 2.81; R 1.98; D 2.44; Y 2.1; F 2.45; K 2.32; V 1.84
W15: F 2.19; T 2.28; G 2.82; P 2.36; D 2.83; R 2.35; K 2.22; Q 2.36; H 2.66; A 2.49; N 2.73; V 2.36; E 2.52; L 1.77; M 2.18; S 1.5; C 2.19; Y 2.23; I 1.71
Y16: I 2.19; W 2.29; L 1.59; D 2.27; H 2.03; V 1.5; M 1.61; Q 2.37; E 2.26; G 1.81; N 2.13; T 2.45; K 2.06; A 2.24; C 2.03; R 1.98; F 2.26; S 2.33
G18: N 2.49; H 2.11; I 1.74; Y 2.03; F 1.6; T 1.04; Q 2.23; A 1.46; V 2.68; E 1.44; L 3; C 2.35; D 2.39; W 2.18; M 1.55; K 2.64; R 2.44; P 1.89; S 2.99
E14: S 1.67; C 3.32; I 1.58; H 2.69; M 1.64; Y 1.3; L 1.68; A 1.57; G 1.69; V 2.56; W 1.92; R 2.58; F 1.95; P 1.87; Q 2.09; D 1.4; K 2.03; N 1.78
G3: Q 1.78; V 2.25; W 2.99; P 1.56; D 2.38; R 2.17; S 2.04; I 2.07; E 2.34; C 1.83; F 2.25; H 1.71; L 1.81; N 2.17; K 2.08; A 2.23; Y 2.13; M 1.88; T 1.54
T2: W 2.35; Y 2.67; V 2.32; S 1.37
S7: D 1.59; V 1.46; R 1.82; E 2.32; K 2.08; Y 2.02; Q 2; C 3.63; H 1.85; A 1.71; G 1.82; M 1.58; L 2.11; P 2.18; N 1.47; F 1.59; T 2.68
T21: A 1.84
V20: T 1.75; I 2.71; G 2.57; Q 1.83; D 2.92; N 1.98; P 1.81; F 1.59; L 1.88; Y 2.44; S 1.66; C 2.13; H 2.34; K 2.2; R 2.42; M 1.85; E 1.67; A 1.73
R13: N 1.91; W 2.01; G 2.21; V 2.44; T 1.81; I 2.64; Q 2.44; M 1.63; F 2.33; D 2.09; L 1.7; P 1.97; A 1.61; Y 1.94; C 3.48; K 2.02; E 2; H 2.75; S 2.03
R9: K 1.46; E 2.5; V 1.85; H 1.45; D 1.81; N 1.69; Q 1.81; T 1.44; M 3.36; Y 1.73; I 3.13; F 4.5; A 1.56; C 2.09; S 1.38; G 2.17; P 2.14
Y17: A 2.11; D 2.64; N 1.59; L 1.58; E 2.56; H 2.06; V 1.89; T 1.36; C 1.77; I 3.41; R 2.19; K 1.91; M 1.87; S 2.44; Q 1.97; P 1.76; G 2.83
F10: Q 1.84; D 1.93; V 2.13; R 1.66; W 3.07; H 2; G 2.35; Y 1.64; T 2.2; I 1.89; P 2.42; K 2.25; N 2.13; M 2.1; E 2.95; C 1.44; A 2.14; L 1.44; S 2.11
S5: T 1.86; E 1.62; C 1.31; R 2.03; G 2.46; D 1.96; K 1.7; A 2.6; H 1.92; Q 1.97; Y 3.23; W 3.56; F 2.77; L 2.56; N 1.95; V 1.4; I 2.13; M 2.96

Source: the supplement of paper PMC10567573
